Source: PMC6730887, “FKBP51 and FKBP12.6—Novel and tight interactors of Glomulin” (PLoS ONE, 2019)
Numbering of substitutions follows the chain as printed. Names and notes keep the numbering of the source. Read-outs that look alike come from different tables or passages of the source.

B1: His-FKBP52FK1 (domain or fragment)
chain: GDRVFVHYTGWLLDGTKFDSSLDRKDKFSFDLGKGEVIKAWDIAIATMKVGEVCHITCKPEYAYGSAGSPPKIPPNATLVFEVELFEFK
B2: His-FKBP51FK1 (FD67/68DV) (domain or fragment)
chain: MTTDEGAKNNEESPTATVAEQGEDITSKKDRGVLKIVKRVGNGEETPMIGDKVYVHYKGKLSNGKKDVSSHDRNEPFVFSLGKGQVIKAWDIGVATMKKGEICHLLCKPEYAYGSAGSLPKIPSNATLFFEIELLDFKGE
B3: His-FKBP51FK1 (1-140) (domain or fragment)
chain: B2 chain with D67F, V68D
B4: His-FKBP51FK1 (F67V) (domain or fragment)
chain: B2 chain with D67V, V68D
B5: His-FKBP52-Strep (full length) (natural protein, UniProt Q02790 1-459, looked up)
chain: MTAEEMKATESGAQSAPLPMEGVDISPKQDEGVLKVIKREGTGTEMPMIGDRVFVHYTGWLLDGTKFDSSLDRKDKFSFDLGKGEVIKAWDIAIATMKVGEVCHITCKPEYAYGSAGSPPKIPPNATLVFEVELFEFKGEDLTEEEDGGIIRRIQTRGEGYAKPNEGAIVEVALEGYYKDKLFDQRELRFEIGEGENLDLPYGLERAIQRMEKGEHSIVYLKPSYAFGSVGKEKFQIPPNAELKYELHLKSFEKAKESWEMNSEEKLEQSTIVKERGTVYFKEGKYKQALLQYKKIVSWLEYESSFSNEEAQKAQALRLASHLNLAMCHLKLQAFSAAIESCNKALELDSNNEKGLFRRGEAHLAVNDFELARADFQKVLQLYPNNKAAKTQLAVCQQRIRRQLAREKKLYANMFERLAEEENKAKAEASSGDHPTDTEMKEEQKSNTAGSQSQVETEA
notes: FKBP52, full length; in pProEx-HTA, used as previously described; also called FKBP52FL; full-length FKBP52; source: E. coli BL21(DE3), purified (Ni-NTA, SEC)
B6: His-FKBP51FK1 (aa16-140) (domain or fragment)
chain: ATVAEQGEDITSKKDRGVLKIVKRVGNGEETPMIGDKVYVHYKGKLSNGKKFDSSHDRNEPFVFSLGKGQVIKAWDIGVATMKKGEICHLLCKPEYAYGSAGSLPKIPSNATLFFEIELLDFKGE
B7: His-FKBP51-Strep (full length) (natural protein, UniProt Q13451 1-457, looked up)
chain: MTTDEGAKNNEESPTATVAEQGEDITSKKDRGVLKIVKRVGNGEETPMIGDKVYVHYKGKLSNGKKFDSSHDRNEPFVFSLGKGQVIKAWDIGVATMKKGEICHLLCKPEYAYGSAGSLPKIPSNATLFFEIELLDFKGEDLFEDGGIIRRTKRKGEGYSNPNEGATVEIHLEGRCGGRMFDCRDVAFTVGEGEDHDIPIGIDKALEKMQREEQCILYLGPRYGFGEAGKPKFGIEPNAELIYEVTLKSFEKAKESWEMDTKEKLEQAAIVKEKGTVYFKGGKYMQAVIQYGKIVSWLEMEYGLSEKESKASESFLLAAFLNLAMCYLKLREYTKAVECCDKALGLDSANEKGLYRRGEAQLLMNEFESAKGDFEKVLEVNPQNKAARLQISMCQKKAKEHNERDRRIYANMFKKFAEQDAKEEANKAMGKKTSEGVTNEKGTDSQAMEEEKPEGHV
notes: FKBP51, full length; in pProEx-HTA, used as previously described; also called FKBP51FL; full-length FKBP51; source: E. coli BL21(DE3), purified (Ni-NTA, SEC)

Experiments:
GST-Glmn (Glomulin) [1] = molecular target: T1, GST-Glmn (Glomulin) (UniProt Q92990 1-594); test: FRET
T1 chain: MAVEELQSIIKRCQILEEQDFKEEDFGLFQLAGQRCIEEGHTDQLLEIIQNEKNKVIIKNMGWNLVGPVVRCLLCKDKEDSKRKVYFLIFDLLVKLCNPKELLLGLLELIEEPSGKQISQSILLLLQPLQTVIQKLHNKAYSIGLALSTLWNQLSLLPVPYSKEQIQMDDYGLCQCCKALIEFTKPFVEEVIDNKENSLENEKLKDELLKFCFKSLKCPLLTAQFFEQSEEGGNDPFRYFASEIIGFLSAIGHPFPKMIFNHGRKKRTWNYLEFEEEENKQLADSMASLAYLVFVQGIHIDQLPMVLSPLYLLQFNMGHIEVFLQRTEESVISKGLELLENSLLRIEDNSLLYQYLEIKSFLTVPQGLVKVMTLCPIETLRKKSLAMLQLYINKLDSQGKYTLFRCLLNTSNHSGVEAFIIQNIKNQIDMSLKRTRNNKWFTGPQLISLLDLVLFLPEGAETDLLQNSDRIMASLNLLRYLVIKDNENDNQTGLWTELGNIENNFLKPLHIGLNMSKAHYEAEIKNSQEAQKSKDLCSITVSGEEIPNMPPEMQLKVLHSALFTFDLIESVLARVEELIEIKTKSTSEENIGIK

GST-Glmn (Glomulin) [2] = molecular target: T1, GST-Glmn (Glomulin); test: FRET
GST-Glmn (Glomulin) [3] = molecular target: T1, GST-Glmn (Glomulin); test: FRET
GST-Glmn (Glomulin) [4] = molecular target: T2, GST-Glmn (Glomulin) (UniProt Q92990 1-594); test: AlphaScreen or HTRF; competitive HTRF: unlabelled FKBP titrated against 30 nM FKBP51FK1-5-MF and 30 nM GST-Glmn with Anti GST-Tb cryptate; 20 mM HEPES, 5% glycerol, 20 mM NaCl, 10 mM DTT, pH 8.0; room temperature, 1 h; conditions: both partners purified
T2 construct: Glomulin (Glmn); GST is detected by the anti-GST-Tb cryptate antibody in the HTRF assays; also called GST-tagged Glmn; FAP48; source: E. coli BL21(DE3), purified (glutathione beads, SEC)
T2 sequence (looked up): T1 chain

Row | Binder | IC50 (GST-Glmn (Glomulin) [1]) | IC50 (GST-Glmn (Glomulin) [3]) | also measured
1 | B1 | 362 nM | – | –
2 | B2 | – | – | IC50 (GST-Glmn (Glomulin) [2]): 15600 nM
3 | B3 | – | 383 nM | –
4 | B4 | – | 880 nM | –
5 | B5 | – | – | fold better competition than its FK1 domain (GST-Glmn (Glomulin) [4]): ~19 fold
6 | B6 | 372 nM | 380 nM | –
7 | B7 | 96 nM | – | fold difference in competition between full-length protein and the isolated FK506-binding domain (GST-Glmn (Glomulin) [4]): 4 fold
